What was measured:
[1] = molecular target: T1, soluble CD3 fragment (Homo sapiens (Human), UniProt P07766 23-127; P04234 22-101); assay: sandwich plate assay titled 'shCD3 capture/gpA33 detection': soluble CD3 immobilized, diabody titrated, bound diabody detected with gpA33; the signal needs binding to both CD3 and gpA33
T1 construct: copies: 1 + 1
Protocol: The detection of binding was assessed by the capacity of immobilized antibodies to additionally bind gpA33.

[2] = molecular target: T2, gpA33 on human cancer cells (human, UniProt Q99795 22-319); assay: cell-based or functional assay
T2 sequence (looked up): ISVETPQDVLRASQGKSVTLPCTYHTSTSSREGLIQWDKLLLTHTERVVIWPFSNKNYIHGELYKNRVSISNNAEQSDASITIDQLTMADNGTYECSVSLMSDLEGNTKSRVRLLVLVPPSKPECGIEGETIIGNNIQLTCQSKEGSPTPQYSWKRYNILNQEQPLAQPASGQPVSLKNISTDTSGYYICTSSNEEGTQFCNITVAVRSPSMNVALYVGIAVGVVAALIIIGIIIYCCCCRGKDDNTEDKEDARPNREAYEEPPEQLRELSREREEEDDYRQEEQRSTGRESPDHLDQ

[3] = molecular target: T3, soluble cynomolgus monkey gpA33 with 6His (cynomolgus monkey, UniProt G7NU40 17-329); assay: SPR (BIAcore 3000), captured gpA33-His, diabody as analyte, 1:1 Langmuir global fit
T3 construct: range 1-314; The range 1-314 is as printed; also called cynogpA33-His
T3 sequence: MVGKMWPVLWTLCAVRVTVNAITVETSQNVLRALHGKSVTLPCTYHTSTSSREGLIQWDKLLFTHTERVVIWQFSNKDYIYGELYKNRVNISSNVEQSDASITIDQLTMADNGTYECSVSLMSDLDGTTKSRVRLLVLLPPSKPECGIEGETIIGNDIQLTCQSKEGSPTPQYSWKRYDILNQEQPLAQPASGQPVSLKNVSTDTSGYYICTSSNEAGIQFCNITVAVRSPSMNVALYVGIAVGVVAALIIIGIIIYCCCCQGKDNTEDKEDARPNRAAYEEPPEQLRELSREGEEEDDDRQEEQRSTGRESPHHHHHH

[4] = molecular target: T4, soluble human gpA33 with 6His (human, UniProt Q99795 22-235); assay: as above
T4 construct: range 1-235; Expressed in CHO-S cells; The stated range starts at residue 1 and so includes the signal peptide; also called hgpA33-His
T4 sequence: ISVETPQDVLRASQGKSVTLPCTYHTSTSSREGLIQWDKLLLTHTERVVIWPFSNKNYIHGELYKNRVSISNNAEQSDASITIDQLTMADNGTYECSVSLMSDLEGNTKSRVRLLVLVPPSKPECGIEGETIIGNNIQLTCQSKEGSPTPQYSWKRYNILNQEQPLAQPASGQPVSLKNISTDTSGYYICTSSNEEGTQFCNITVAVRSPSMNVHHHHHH

[5] = molecular target: T5, soluble human CD3ε/CD3δ heterodimer (human); assay: SPR (BIAcore 3000), CD3 immobilized on CM5 chip, diabody as analyte, 1:1 Langmuir global fit
T5 construct: Co-expressed in CHO-S cells; also called hCD3ε/δ
T5 chain 1: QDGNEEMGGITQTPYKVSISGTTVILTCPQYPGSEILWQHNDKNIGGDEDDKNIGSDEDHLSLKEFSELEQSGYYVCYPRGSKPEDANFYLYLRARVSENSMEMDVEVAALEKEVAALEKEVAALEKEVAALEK
T5 chain 2: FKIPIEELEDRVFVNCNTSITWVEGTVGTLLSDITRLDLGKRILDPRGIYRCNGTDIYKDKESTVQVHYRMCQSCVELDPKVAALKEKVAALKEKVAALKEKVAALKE
Protocol: (§1) gpA33×CD3 bi-specific Fc diabody (DART-2 w/Fc Version 1) binding to soluble versions of human and cynomolgus monkey CD3 receptor was analyzed by SPR on a BIAcore 3000 biosensor (GE, Healthcare). Receptors were immobilized on the CM5 sensor chip according to the procedure recommended by the manufacturer. Briefly, the carboxyl groups on the sensor chip surface were activated with an injection of a solution containing 0.2M N-ethyl-N-(3dietylamino-propyl) carbodiimide and 0.05M N-hydroxy-succinimide. Soluble CD3 receptor (1 μg/ml) was then injected over the activated CM5 surface in 10 mM sodium-acetate, pH 5.0, at flow rate 5 μL/min, followed by 1 M ethanolamine for deactivation.
(§2) Binding experiments were performed in HBS-EP buffer, which contains 10 mM HEPES, pH 7.4, 150 mM NaCl, 3 mM EDTA and 0.005% P20 surfactant. Binding of DART-2 w/Fc Version 1 was analyzed (in duplicate) at concentrations of 0, 6.25, 12.5, 25, 50 and 100 nM, injected for 120 sec at a flow rate of 30 μL/min.
(§3) Regeneration of the immobilized receptor surfaces was performed by pulse injection of 10 mM glycine, pH 1.5. Reference curves were obtained by injection of each dilution of DART-2 w/Fc over the treated surface with no immobilized protein. Binding curves at zero concentration were subtracted as a blank. KD values were determined by a global fit of binding curves to the Langmuir 1:1 binding model (BIAevaluation™ software v4.1).

[6] = molecular target: T6, soluble cynomolgus monkey CD3ε/CD3δ heterodimer (cynomolgus monkey); assay: as above
T6 construct: Co-expressed in CHO-S cells; also called cynoCD3ε/δ
T6 chain 1: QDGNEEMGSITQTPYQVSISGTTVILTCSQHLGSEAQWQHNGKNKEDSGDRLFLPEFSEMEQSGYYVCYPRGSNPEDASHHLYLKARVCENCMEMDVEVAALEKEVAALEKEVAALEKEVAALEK
T6 chain 2: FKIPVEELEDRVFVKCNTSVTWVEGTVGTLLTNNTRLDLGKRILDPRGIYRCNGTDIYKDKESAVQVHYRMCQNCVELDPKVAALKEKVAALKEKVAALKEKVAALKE
Protocol: as §1, §2, §3

[7] = molecular target: T7, human gpA33 (human, UniProt Q99795 22-235, limits assumed); assay: simultaneous-binding assay; group statement
T7 construct: There it is printed only as gpA33; also called A33 antigen
T7 sequence (looked up): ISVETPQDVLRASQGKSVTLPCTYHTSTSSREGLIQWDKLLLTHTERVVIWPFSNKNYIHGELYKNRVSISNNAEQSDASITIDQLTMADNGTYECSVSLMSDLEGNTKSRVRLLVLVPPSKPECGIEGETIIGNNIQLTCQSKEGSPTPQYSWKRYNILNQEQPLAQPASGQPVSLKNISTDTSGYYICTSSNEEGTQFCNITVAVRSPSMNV

B1: gpA33 × CD3 bi-specific monovalent diabody (DART-1) (bispecific antibody)
chain 1: QAVVTQEPSLTVSPGGTVTLTCRSSTGAVTTSNYANWVQQKPGQAPRGLIGGTNKRAPWTPARFSGSLLGGKAALTITGAQAEDEADYYCALWYSNLWVFGGGTKLTVLGGGGSGGGGQVQLQQSGPELVKPGASVKISCKASGYTFSGSWMNWVKQRPGQGLEWIGRIYPGDGETNYNGKFKDKATLTADKSSTTAYMELSSLTSVDSAVYFCARIYGNNVYFDVWGAGTTVTVSSGGCGGGEVAALEKEVAALEKEVAALEKEVAALEK
chain 2: QIVLTQSPAIMSASPGERVTMTCSARSSISFMYWYQQKPGSSPRLLIYDTSNLASGVPVRFSGSGSGTSYSLTISRMEAEDAATYYCQQWSSYPLTFGSGTKLELKRGGGSGGGGEVQLVESGGGLVQPGGSLRLSCAASGFTFNTYAMNWVRQAPGKGLEWVARIRSKYNNYATYYADSVKDRFTISRDDSKNSLYLQMNSLKTEDTAVYYCVRHGNFGNSYVSWFAYWGQGTLVTVSSGGCGGGKVAALKEKVAALKEKVAALKEKVAALKE
notes: Disulfide-bonded heterodimer with murine anti-gpA33 variable domains; also called gpA33 × CD3 DART 1
In the case of B1, the “EC50 (read off the curve)” value [1] is reported as roughly 200 ng/mL, the “EC50 of redirected killing, ASPC-1 cells, E:T 10:1” value [2] is reported as 1.14 ng/mL and the “EC50 of redirected killing, Colo205 cells, E:T 10:1” value [2] is reported as 0.585 ng/mL. For the same binder, the “EC50 of redirected killing, Colon CSLC cells, human PBMC E:T 25:1” value [2] was 0.901 ng/mL.

B2: gpA33 × CD3 bi-specific monovalent diabody having an IgG Fc Domain version 1 (DART-2 w/Fc Version 1) (bispecific antibody)
chain 1: DIQLTQSPSFLSASVGDRVTITCSARSSISFMYWYQQKPGKAPKLLIYDTSNLASGVPSRFSGSGSGTEFTLTISSLEAEDAATYYCQQWSSYPLTFGQGTKLEIKGGGSGGGGEVQLVESGGGLVQPGGSLRLSCAASGFTFSTYAMNWVRQAPGKGLEWVGRIRSKYNNYATYYADSVKDRFTISRDDSKNSLYLQMNSLKTEDTAVYYCVRHGNFGNSYVSWFAYWGQGTLVTVSSGGCGGGEVAALEKEVAALEKEVAALEKEVAALEKGGGDKTHTCPPCPAPEAAGGPSVFLFPPKPKDTLMISRTPEVTCVVVDVSHEDPEVKFNWYVDGVEVHNAKTKPREEQYNSTYRVVSVLTVLHQDWLNGKEYKCKVSNKALPAPIEKTISKAKGQPREPQVYTLPPSREEMTKNQVSLWCLVKGFYPSDIAVEWESNGQPENNYKTTPPVLDSDGSFFLYSKLTVDKSRWQQGNVFSCSVMHEALHNHYTQKSLSLSPGK
chain 2: QAVVTQEPSLTVSPGGTVTLTCRSSTGAVTTSNYANWVQQKPGQAPRGLIGGTNKRAPWTPARFSGSLLGGKAALTITGAQAEDEADYYCALWYSNLWVFGGGTKLTVLGGGGSGGGGQVQLVQSGAEVKKPGASVKVSCKASGYTFTGSWMNWVRQAPGQGLEWIGRIYPGDGETNYNGKFKDRVTITADKSTSTAYMELSSLRSEDTAVYYCARIYGNNVYFDVWGQGTTVTVSSGGCGGGKVAALKEKVAALKEKVAALKEKVAALKE
chain 3: not shown
notes: also called DART-2 with Fc
Work on B2 yielded a Kd [3] of 12 nM, a koff [3] of 0.0028 s⁻¹ and a kon [3] of 230000 M⁻¹ s⁻¹. For the same binder, the Kd [4] was 2.2 nM, the koff [4] was 0.0009 s⁻¹ and the kon [4] was 420000 M⁻¹ s⁻¹. The Kd [5] was 23 nM, the koff [5] was 0.0035 s⁻¹ and the kon [5] was 150000 M⁻¹ s⁻¹. For the same binder, the Kd [6] was 26 nM, the koff [6] was 0.0034 s⁻¹ and the kon [6] was 130000 M⁻¹ s⁻¹.

B3: gpA33 × CD3 bi-specific monovalent diabody having an IgG Fc Domain version 2 (DART-2 w/Fc Version 2) (bispecific antibody)
chain 1: DKTHTCPPCPAPEAAGGPSVFLFPPKPKDTLMISRTPEVTCVVVDVSHEDPEVKFNWYVDGVEVHNAKTKPREEQYNSTYRVVSVLTVLHQDWLNGKEYKCKVSNKALPAPIEKTISKAKGQPREPQVYTLPPSREEMTKNQVSLWCLVKGFYPSDIAVEWESNGQPENNYKTTPPVLDSDGSFFLYSKLTVDKSRWQQGNVFSCSVMHEALHNHYTQKSLSLSPGKAPSSSPMEDIQLTQSPSFLSASVGDRVTITCSARSSISFMYWYQQKPGKAPKLLIYDTSNLASGVPSRFSGSGSGTEFTLTISSLEAEDAATYYCQQWSSYPLTFGQGTKLEIKGGGSGGGGEVQLVESGGGLVQPGGSLRLSCAASGFTFSTYAMNWVRQAPGKGLEWVGRIRSKYNNYATYYADSVKDRFTISRDDSKNSLYLQMNSLKTEDTAVYYCVRHGNFGNSYVSWFAYWGQGTLVTVSSGGCGGGKVAALKEKVAALKEKVAALKEKVAALKE
chain 2: QAVVTQEPSLTVSPGGTVTLTCRSSTGAVTTSNYANWVQQKPGQAPRGLIGGTNKRAPWTPARFSGSLLGGKAALTITGAQAEDEADYYCALWYSNLWVFGGGTKLTVLGGGGSGGGGQVQLVQSGAEVKKPGASVKVSCKASGYTFTGSWMNWVRQAPGQGLEWIGRIYPGDGETNYNGKFKDRVTITADKSTSTAYMELSSLRSEDTAVYYCARIYGNNVYFDVWGQGTTVTVSSGGCGGGEVAALEKEVAALEKEVAALEKEVAALEK
chain 3: not shown
B3: binds [7].
